Test results reported in the Immune Epitope Database (IEDB).

Experiments:
HLA-B*35:01 = assay: IEDB peptide-MHC binding, purified MHC/competitive/fluorescence; filed as Kd, often an IC50 or EC50 that approximates it; ≥ and ≤ were set here for values at or beyond the usual limits of such assays; conditions: source organism: Francisella tularensis subsp. tularensis FSC198
HLA-B*15:17 [1] = assay: as above; conditions: source organism: Francisella tularensis subsp. tularensis FSC198
HLA-A*30:01 = assay: as above; conditions: source organism: Francisella tularensis subsp. tularensis FSC198
HLA-A*26:02 [2] = assay: as above; conditions: source organism: Francisella tularensis subsp. tularensis FSC198
HLA-A*02:03 = assay: as above; conditions: source organism: Francisella tularensis subsp. tularensis FSC198
HLA-A*11:01 [3] = assay: IEDB peptide-MHC binding, purified MHC/direct/fluorescence; filed as Kd, often an IC50 or EC50 that approximates it; ≥ and ≤ were set here for values at or beyond the usual limits of such assays
HLA-B*57:01 = assay: as above
HLA-B*58:01 [4] = assay: as above
HLA-B*27:05 = assay: as above
HLA-A*69:01 = assay: as above
HLA-B*15:01 [5] = assay: as above
HLA-B*08:01 = assay: as above
HLA-A*31:01 = assay: as above
HLA-B*46:01 = assay: as above
HLA-B*15:02 = assay: as above
HLA-A*68:02 = assay: as above
HLA-A*01:01 = assay: as above
HLA-B*48:01 = assay: as above
HLA-B*07:02 [6] = assay: as above
HLA-A*02:01 [7] = assay: as above
HLA-B*15:09 = assay: as above
HLA-B*58:01 [8] = assay: IEDB peptide-MHC binding, purified MHC/competitive/fluorescence; filed as Kd, often an IC50 or EC50 that approximates it; ≥ and ≤ were set here for values at or beyond the usual limits of such assays; conditions: source organism: Yersinia pestis Nepal516
HLA-B*15:01 [9] = assay: as above; conditions: source organism: Yersinia pestis Nepal516
HLA-B*39:01 = assay: as above; conditions: source organism: Yersinia pestis Nepal516
HLA-B*51:01 = assay: as above; conditions: source organism: Yersinia pestis Nepal516
HLA-A*02:01 [10] = assay: as above; conditions: source organism: Yersinia pestis Nepal516
HLA-C*08:02 = assay: IEDB peptide-MHC binding, purified MHC/direct/fluorescence; filed as Kd, often an IC50 or EC50 that approximates it; ≥ and ≤ were set here for values at or beyond the usual limits of such assays
HLA-C*05:01 = assay: as above
HLA-B*08:02 = assay: as above
HLA-B*15:17 [11] = assay: as above
HLA-A*26:02 [12] = assay: as above
HLA-A*03:01 = assay: as above; conditions: source organism: Brucella abortus
HLA-A*26:03 = assay: as above; conditions: source organism: Mycobacterium tuberculosis str. Haarlem
HLA-B*08:03 = assay: as above; conditions: source organism: Mycobacterium tuberculosis str. Haarlem
HLA-A*26:01 = assay: as above; conditions: source organism: Mycobacterium tuberculosis str. Haarlem
HLA-B*18:01 = assay: as above; conditions: source organism: Mycobacterium tuberculosis
HLA-B*40:01 = assay: as above; conditions: source organism: Mycobacterium tuberculosis
HLA-A*11:01 [13] = assay: IEDB peptide-MHC binding, purified MHC/competitive/fluorescence; ≥ and ≤ were set here for values at or beyond the usual limits of such assays; conditions: source organism: Zaire ebolavirus
HLA-B*15:01 [14] = assay: as above; conditions: source organism: Zaire ebolavirus
HLA-A*24:02 = assay: as above; conditions: source organism: Zaire ebolavirus
HLA-B*07:02 [15] = assay: as above; conditions: source organism: Zaire ebolavirus
HLA-A*02:01 [16] = assay: as above; conditions: source organism: Zaire ebolavirus
HLA-C*03:03 = assay: IEDB peptide-MHC binding, purified MHC/direct/fluorescence; filed as Kd, often an IC50 or EC50 that approximates it; ≥ and ≤ were set here for values at or beyond the usual limits of such assays; conditions: source organism: Mycobacterium tuberculosis C
HLA-A*02:12 = assay: as above; conditions: source organism: Francisella tularensis subsp. tularensis FSC033
HLA-A*02:19 = assay: as above; conditions: source organism: Francisella tularensis subsp. tularensis FSC033
HLA-A*02:11 = assay: as above; conditions: source organism: Francisella tularensis subsp. tularensis FSC033
HLA-C*12:03 = assay: as above; conditions: source organism: Francisella tularensis subsp. tularensis WY96-3418
[17] = source organism: Francisella tularensis subsp. holarctica LVS
[18] = source organism: Francisella tularensis subsp. tularensis FSC033
[19] = source organism: Yersinia pestis Nepal516
[20] = source organism: Brucella abortus
[21] = source organism: Brucella suis 1330
[22] = source organism: Mycobacterium tuberculosis
[23] = source organism: Mycobacterium tuberculosis str. Haarlem
[24] = source organism: Mycobacterium tuberculosis C

FQVNRFTGY
Kd (HLA-B*35:01): 4.41 µM | Kd (HLA-B*15:17 [1]): ≥ 20 µM | Kd (HLA-A*30:01): ≥ 20 µM | Kd (HLA-A*26:02 [2]): 0.113 µM | Kd (HLA-A*02:03): ≥ 20 µM | Kd (HLA-A*11:01 [3]; [17]): ≥ 20 µM | Kd (HLA-B*57:01; [17]): ≥ 20 µM | Kd (HLA-B*58:01 [4]; [17]): ≥ 20 µM | Kd (HLA-B*27:05; [17]): 0.632 µM | Kd (HLA-A*69:01; [17]): ≥ 20 µM | Kd (HLA-B*15:01 [5]; [17]): 0.0097 µM | Kd (HLA-B*08:01; [18]): ≥ 20 µM | Kd (HLA-A*31:01; [17]): ≥ 20 µM | Kd (HLA-B*46:01; [17]): ≥ 20 µM | Kd (HLA-B*15:02; [18]): 0.008 µM | Kd (HLA-A*68:02; [17]): ≥ 20 µM | Kd (HLA-A*01:01; [17]): ≥ 20 µM | Kd (HLA-B*48:01; [17]): ≥ 20 µM | Kd (HLA-B*07:02 [6]; [17]): ≥ 20 µM | Kd (HLA-A*02:01 [7]; [17]): ≥ 20 µM | Kd (HLA-B*15:09; [18]): ≥ 20 µM

FSYNVAYAI
Kd (HLA-B*58:01 [8]): 0.0363 µM | Kd (HLA-B*15:01 [9]): ≥ 20 µM | Kd (HLA-B*39:01): 0.469 µM | Kd (HLA-B*51:01): 2.27 µM | Kd (HLA-A*02:01 [10]): 0.0296 µM | Kd (HLA-C*08:02; [19]): 0.182 µM | Kd (HLA-C*05:01; [19]): 4.96 µM

GLAEKPNDY
Kd (HLA-A*11:01 [3]; [20]): ≥ 20 µM | Kd (HLA-B*57:01; [20]): ≥ 20 µM | Kd (HLA-B*58:01 [4]; [20]): ≥ 20 µM | Kd (HLA-B*27:05; [20]): ≥ 20 µM | Kd (HLA-B*08:02; [21]): ≥ 20 µM | Kd (HLA-A*69:01; [20]): ≥ 20 µM | Kd (HLA-B*15:01 [5]; [20]): 0.947 µM | Kd (HLA-A*31:01; [20]): ≥ 20 µM | Kd (HLA-B*46:01; [20]): ≥ 20 µM | Kd (HLA-B*15:02; [20]): 2 µM | Kd (HLA-A*68:02; [20]): ≥ 20 µM | Kd (HLA-B*15:17 [11]; [20]): ≥ 20 µM | Kd (HLA-A*01:01; [20]): ≥ 20 µM | Kd (HLA-A*26:02 [12]; [21]): ≥ 20 µM | Kd (HLA-B*48:01; [20]): ≥ 20 µM | Kd (HLA-B*07:02 [6]; [20]): ≥ 20 µM | Kd (HLA-A*03:01): ≥ 20 µM | Kd (HLA-A*02:01 [7]; [20]): ≥ 20 µM | Kd (HLA-B*15:09; [21]): ≥ 20 µM

KYFVRSTEK
Kd (HLA-A*11:01 [3]; [22]): 1.79 µM | Kd (HLA-A*26:03): ≥ 20 µM | Kd (HLA-B*08:03): ≥ 20 µM | Kd (HLA-B*57:01; [22]): ≥ 20 µM | Kd (HLA-B*58:01 [4]; [22]): ≥ 20 µM | Kd (HLA-B*27:05; [22]): ≥ 20 µM | Kd (HLA-B*08:02; [23]): ≥ 20 µM | Kd (HLA-B*15:01 [5]; [22]): ≥ 20 µM | Kd (HLA-A*26:01): ≥ 20 µM | Kd (HLA-B*08:01; [23]): ≥ 20 µM | Kd (HLA-A*31:01; [22]): 0.0021 µM | Kd (HLA-B*18:01): ≥ 20 µM | Kd (HLA-B*46:01; [22]): ≥ 20 µM | Kd (HLA-A*68:02; [22]): ≥ 20 µM | Kd (HLA-B*15:17 [11]; [22]): ≥ 20 µM | Kd (HLA-A*01:01; [22]): ≥ 20 µM | Kd (HLA-A*26:02 [12]; [23]): ≥ 20 µM | Kd (HLA-B*40:01): ≥ 20 µM | Kd (HLA-B*48:01; [22]): ≥ 20 µM | Kd (HLA-B*07:02 [6]; [22]): ≥ 20 µM | Kd (HLA-A*02:01 [7]; [22]): ≥ 20 µM

RTNFLIKFL
IC50 (HLA-A*11:01 [13]): ≥ 589 µM | IC50 (HLA-B*15:01 [14]): ≥ 725 µM | IC50 (HLA-A*24:02): 10.2 µM | IC50 (HLA-B*07:02 [15]): ≥ 275 µM | IC50 (HLA-A*02:01 [16]): ≥ 165 µM

SPQNHSETA
IC50 (HLA-B*07:02 [15]): 45.2 µM

YLDAIQQPV
Kd (HLA-C*08:02; [24]): ≤ 0.001 µM | Kd (HLA-C*03:03): 0.256 µM | Kd (HLA-C*05:01; [24]): 0.025 µM

YLYPWSLGL
Kd (HLA-A*02:12): 0.002 µM | Kd (HLA-A*02:19): 0.012 µM | Kd (HLA-A*02:11): ≤ 0.001 µM | Kd (HLA-C*12:03): 0.004 µM | Kd (HLA-C*08:02; source organism: Francisella tularensis subsp. tularensis WY96-3418): ≥ 20 µM | Kd (HLA-A*02:01 [7]; [17]): ≤ 0.001 µM
